In patent US20160237419:

Tested on: supercharged variant of human trypsinogen-1 (PRSS1 sc)
Sequence (chain, as listed by the source mutant): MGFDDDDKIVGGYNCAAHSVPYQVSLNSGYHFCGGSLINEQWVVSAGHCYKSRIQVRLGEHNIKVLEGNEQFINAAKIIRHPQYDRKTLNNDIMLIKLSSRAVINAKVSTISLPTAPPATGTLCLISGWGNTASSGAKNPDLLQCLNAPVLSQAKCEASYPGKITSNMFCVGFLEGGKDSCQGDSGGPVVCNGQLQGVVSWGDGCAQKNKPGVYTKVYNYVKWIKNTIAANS

Substance: trypsin
- autoactivation (trypsin activity on CBZ-GPR-pNA after incubation with trypsin): PRSS1 sc (SEQ ID NO 01) does not show a significant autoactivation
